The values below are quoted from earlier work in PMC3686494.

pKd: −log10 of the molar value.

The target of the series is AgCad1 (cadherin) CR9-11 (Anopheles gambiae). The series is described as follows: one-site saturation binding.

With Cry4Ba (from UniProt P05519), the pKd is 7.89.

What is called pKd is the negative decadic logarithm of the Kd, by convention in mol/L.
